Here are results for 6 sequences from the supplement of paper PMC5998384.

The subject of data set [1] is HeLa Kyoto. Description: melting temperature (median over replicates), in situ; higher = more thermally stable.
Data set [2] has as its system HeLa Kyoto. Briefly: solubility in G1/S (NP-40 vs SDS abundance) (log2 ratio); higher = more soluble. The conditions noted are these: cell cycle stage: G1/S.
The subject of data set [3] is HeLa Kyoto. Description: thermal stability score vs G1/S (z-score of summed log2 fold changes over temperatures); higher = more thermally stable than in G1/S.
The subject of data set [4] is HeLa Kyoto. Briefly: solubility change mitosis vs G1/S (difference of NP-40 vs SDS log2 ratios) (log2 ratio difference); higher = more soluble in mitosis.
The mark [5] stands for this setting: cell cycle stage: early G1 (4.5 h after nocodazole release).
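For melting temperature (median over replicates), in situ in this document: HeLa Kyoto cells synchronized by double thymidine or nocodazole block, proteins quantified by TMT10plex mass spectrometry, three independent biological replicates.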
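For solubility change mitosis vs G1/S (difference of NP-40 vs SDS log2 ratios) in this document: synchronized HeLa Kyoto cells (double thymidine block for G1/S, nocodazole release for mitosis), protein amounts in NP-40 versus SDS lysates quantified by mass spectrometry, three biological replicates.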
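For solubility in G1/S (NP-40 vs SDS abundance) in this document: HeLa Kyoto cells arrested at G1/S by double thymidine block, proteins quantified by TMT10plex mass spectrometry in mild NP-40 versus SDS extracts, three biological replicates.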
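For thermal stability score vs G1/S (z-score of summed log2 fold changes over temperatures) in this document: synchronized HeLa Kyoto cells, proteins quantified by TMT10plex mass spectrometry, three biological replicates, mitosis taken 0.5 h after nocodazole release, G1/S directly after double thymidine block.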

On to “MEAVAVAAAVGVLLLAGAGGAAGDEAREAAAVRALVARLLGPGPAADFSVSVERALAAKPGLDTYSLGGGGAARVRVRGSTGVAAAAGLHRYLRDFCGCHVAWSGSQLRLPRPLPAVPGELTEATPNRYRYYQNVCTQSYSFVWWDWARWEREIDWMALNGINLALAWSGQEAIWQRVYLALGLTQAEINEFFTGPAFLAWGRMGNLHTWDGPLPPSWHIKQLYLQHRVLDQMRSFGMTPVLPAFAGHVPEAVTRVFPQVNVTKMGSWGHFNCSYSCSFLLAPEDPIFPIIGSLFLRELIKEFGTDHIYGADTFNEMQPPSSEPSYLAAATTAVYEAMTAVDTEAVWLLQGWLFQHQPQFWGPAQIRAVLGAVPRGRLLVLDLFAESQPVYTRTASFQGQPFIWCMLHNFGGNHGLFGALEAVNGGPEAARLFPNSTMVGTGMAPEGISQNEVVYSLMAELGWRKDPVPDLAAWVTSFAARRYGVSHPDAGAAWRLLLRSVYNCSGEACRGHNRSPLVRRPSLQMNTSIWYNRSDVFEAWRLLLTSAPSLATSPAFRYDLLDLTRQAVQELVSLYYEEARSAYLSKELASLLRAGGVLAYELLPALDEVLASDSRFLLGSWLEQARAAAVSEAEADFYEQNSRYQLTLWGPEGNILDYANKQLAGLVANYYTPRWRLFLEALVDSVAQGIPFQQHQFDKNVFQLEQAFVLSKQRYPSQPRGDTVDLAKKIFLKYYPRWVAGSW [NAGLU]”, for which the melting temperature in data set [1] (cell cycle stage: G1/S) amounted to 55.7 °C; in data set [1] (cell cycle stage: mitosis) it was 55.5 °C. Also, the “solubility in G1/S (log2)” value in data set [2] turned out to be 0.341. Also, the figures for the thermal stability score in data set [3] (setting [5]) and in data set [3] (cell cycle stage: mitosis) were -2.49 and -1.73, respectively. Moreover, the “solubility change mitosis (log2)” value in data set [4] was -0.238.
Regarding “MEAVKTFNSELYSLNDYKPPISKAKMTQITKAAIKAIKFYKHVVQSVEKFIQKCKPEYKVPGLYVIDSIVRQSRHQFGQEKDVFAPRFSNNIISTFQNLYRCPGDDKSKIVRVLNLWQKNNVFKSEIIQPLLDMAAGIPPPVVTPVLASTTTAMSNTPGTPVTPVTPANVVQGLPDPWVSQITNTDTLAAVAQILQSPQGQQLQQLIQTLQIQQQKPQPSILQALDAGLVVQLQALTAQLTAAAAAANTLTPLEQGVSFNKKLMDRFDFGEDSEHSEEPKKEIPASQLSHVSESVNNSIFHQIAEQLQQQNLEHLRQQLLEQQQPQKATPQDSQEGTFGSEHSASPSQGSSQQHFLEPEVNLDDSIDIQQQDMDIDEGQDGVEEEVFEQEAKKVAVRSRSRTHSRSRSRSPRKRRSRSRSGSRKRKHRKRSRSRSRERKRKSSRSYSSERRAREREKERQKKGLPPIRSKTLSVCSTTLWVGQVDKKATQQDLTNLFEEFGQIESINMIPPRGCAYVCMVHRQDAFRALQKLSSGSYKIGSKVIKIAWALNKGVKTEYKQFWDVDLGVTYIPWEKVKVDDLEGFAEGGMIDQETVNTEWETVKSSEPVKETVQTTQSPTPVEKETVVTTQAEVFPPPVAMLQIPVAPAVPTVSLVPPAFPVSMPVPPPGFSPIPPPPFLRASFNPSQPPPGFMPPPVPPPVVPPPTIPPVVPTSLVQPSLSMTPETVKDVGFGSLVIPGGSVASNLATSALPAGNVFNAPTKQAEPEEKVPHLIDHQISSGENTRSVIPNDISSNAAILGGQPPNVTSNSGILGVQRPNVSSNSEILGVRPSNVSSSSGIIAAQPPNILNNSGILGIQPPSVSNSSGLLGVLPPNIPNNSGLVGVQPPNVPNTPGLLGTQPPAGPQNLPPLSIPNQRMPTMPMLDIRPGLIPQAPGPRFPLIQPGIPPQRGIPPPSVLDSALHPPPRGPFPPGDIFSQPERPFLAPGRQSVDNVTNPEKRIPLGNDNIQQEGDRDYRFPPIETRESISRPPPVDVRDVVGRPIDPREGPGRPPLDGRDHFGRPPVDIRENLVRPGIDHLGRRDHFGFNPEKPWGHRGDFDEREHRVLPVYGGPKGLHEERGRFRSGNYRFDPRSGPWNRGFGQEVHRDFDDRRRPWERQRDRDDRDFDFCREMNGNRLGRDRIQNTWVPPPHARVFDYFEGATSQRKGDNVPQVNGENTERHAQPPPIPVQNDPELYEKLTSSNEINKEKSDTVADIESEPVVESTETEGT [SCAF8]”, the melting temperature in data set [1] (cell cycle stage: G1/S) was determined as 48.6 °C; in data set [1] (cell cycle stage: mitosis), 49.3 °C. The “solubility in G1/S (log2)” value in data set [2] was -0.11. In addition, the figures for the thermal stability score in data set [3] (setting [5]) and in data set [3] (cell cycle stage: mitosis) were 0.536 and 0.448, respectively. Besides, the “solubility change mitosis (log2)” value in data set [4] is -0.0284.
Regarding “MEDDAPVIYGLEFQARALTPQTAETDAIRFLVGTQSLKYDNQIHIIDFDDENNIINKNVLLHQAGEIWHISASPADRGVLTTCYNRTSDSKVLTCAAVWRMPKELESGSHESPDDSSSTAQTLELLCHLDNTAHGNMACVVWEPMGDGKKIISLADNHILLWDLQESSSQAVLASSASLEGKGQLKFTSGRWSPHHNCTQVATANDTTLRGWDTRSMSQIYCIENAHGQLVRDLDFNPNKQYYLASCGDDCKVKFWDTRNVTEPVKTLEEHSHWVWNVRYNHSHDQLVLTGSSDSRVILSNMVSISSEPFGHLVDDDDISDQEDHRSEEKSKEPLQDNVIATYEEHEDSVYAVDWSSADPWLFASLSYDGRLVINRVPRALKYHILL [TSSC1]”, the melting temperature in data set [1] (cell cycle stage: G1/S) came out at 51.9 °C; in data set [1] (cell cycle stage: mitosis), 52.9 °C. In addition, the “solubility in G1/S (log2)” value in data set [2] was 0.0334. Besides, the thermal stability score is -0.291 in data set [3] (setting [5]) and -0.357 in data set [3] (cell cycle stage: mitosis). Besides, in data set [4], the “solubility change mitosis (log2)” value was -0.21.
Regarding “MEDGKPVWAPHPTDGFQMGNIVDIGPDSLTIEPLNQKGKTFLALINQVFPAEEDSKKDVEDNCSLMYLNEATLLHNIKVRYSKDRIYTYVANILIAVNPYFDIPKIYSSEAIKSYQGKSLGTRPPHVFAIADKAFRDMKVLKMSQSIIVSGESGAGKTENTKFVLRYLTESYGTGQDIDDRIVEANPLLEAFGNAKTVRNNNSSRFGKFVEIHFNEKSSVVGGFVSHYLLEKSRICVQGKEERNYHIFYRLCAGASEDIREKLHLSSPDNFRYLNRGCTRYFANKETDKQILQNRKSPEYLKAGSMKDPLLDDHGDFIRMCTAMKKIGLDDEEKLDLFRVVAGVLHLGNIDFEEAGSTSGGCNLKNKSAQSLEYCAELLGLDQDDLRVSLTTRVMLTTAGGTKGTVIKVPLKVEQANNARDALAKTVYSHLFDHVVNRVNQCFPFETSSYFIGVLDIAGFEYFEHNSFEQFCINYCNEKLQQFFNERILKEEQELYQKEGLGVNEVHYVDNQDCIDLIEAKLVGILDILDEENRLPQPSDQHFTSAVHQKHKDHFRLTIPRKSKLAVHRNIRDDEGFIIRHFAGAVCYETTQFVEKNNDALHMSLESLICESRDKFIRELFESSTNNNKDTKQKAGKLSFISVGNKFKTQLNLLLDKLRSTGASFIRCIKPNLKMTSHHFEGAQILSQLQCSGMVSVLDLMQGGYPSRASFHELYNMYKKYMPDKLARLDPRLFCKALFKALGLNENDYKFGLTKVFFRPGKFAEFDQIMKSDPDHLAELVKRVNHWLTCSRWKKVQWCSLSVIKLKNKIKYRAEACIKMQKTIRMWLCKRRHKPRIDGLVKVGTLKKRLDKFNEVVSVLKDGKPEMNKQIKNLEISIDTLMAKIKSTMMTQEQIQKEYDALVKSSEELLSALQKKKQQEEEAERLRRIQEEMEKERKRREEDEKRRRKEEEERRMKLEMEAKRKQEEEERKKREDDEKRIQAEVEAQLARQKEEESQQQAVLEQERRDRELALRIAQSEAELISDEAQADLALRRSLDSYPVSKNDGTRPKMTPEQMAKEMSEFLSRGPAVLATKAAAGTKKYDLSKWKYAELRDTINTSCDIELLAACREEFHRRLKVYHAWKSKNKKRNTETEQRAPKSVTDYDFAPFLNNSPQQNPAAQIPARQREIEMNRQQRFFRIPFIRPADQYKDPQSKKKGWWYAHFDGPWIARQMELHPDKPPILLVAGKDDMEMCELNLEETGLTRKRGAEILPRQFEEIWERCGGIQYLQNAIESRQARPTYATAMLQSLLK [MYO6]”, the melting temperature in data set [1] (cell cycle stage: G1/S) is 52.1 °C; in data set [1] (cell cycle stage: mitosis) it was 51.5 °C. For the same sequence, the “solubility in G1/S (log2)” value in data set [2] is -0.238. Moreover, the thermal stability score in data set [3] (setting [5]) was -0.962; in data set [3] (cell cycle stage: mitosis) it was -1.32. Besides, the “solubility change mitosis (log2)” value in data set [4] is -0.164.
On to “MEDTPLVISKQKTEVVCGVPTQVVCTAFSSHILVVVTQFGKMGTLVSLEPSSVASDVSKPVLTTKVLLGQDEPLIHVFAKNLVAFVSQEAGNRAVLLAVAVKDKSMEGLKALREVIRVCQVW [PSMG3]”, for which the melting temperature in data set [1] (cell cycle stage: G1/S) is 57.8 °C; in data set [1] (cell cycle stage: mitosis), 56.2 °C. Further, the “solubility in G1/S (log2)” value in data set [2] was found to be 0.13. Besides, the thermal stability score was -1.46 in data set [3] (setting [5]) and -2.93 in data set [3] (cell cycle stage: mitosis). In addition, in data set [4], the “solubility change mitosis (log2)” value was -0.0857.
In the case of “MEEEDESRGKTEESGEDRGDGPPDRDPTLSPSAFILRAIQQAVGSSLQGDLPNDKDGSRCHGLRWRRCRSPRSEPRSQESGGTDTATVLDMATDSFLAGLVSVLDPPDTWVPSRLDLRPGESEDMLELVAEVRIGDRDPIPLPVPSLLPRLRAWRTGKTVSPQSNSSRPTCARHLTLGTGDGGPAPPPAPSSASSSPSPSPSSSSPSPPPPPPPPAPPAPPAPRFDIYDPFHPTDEAYSPPPAPEQKYDPFEPTGSNPSSSAGTPSPEEEEEEEEEEEEEEEDEEEEEGLSQSISRISETLAGIYDDNSLSQDFPGDESPRPDAQPTQPTPAPGTPPQVDSTRADGAMRRRVFVVGTEAEACREGKVSVEVVTAGGAALPPPLLPPGDSEIEEGEIVQPEEEPRLALSLFRPGGRAARPTPAASATPTAQPLPQPPAPRAPEGDDFLSLHAESDGEGALQVDLGEPAPAPPAADSRWGGLDLRRKILTQRRERYRQRSPSPAPAPAPAAAAGPPTRKKSRRERKRSGEAKEAASSSSGTQPAPPAPASPWDSKKHRSRDRKPGSHASSSARRRSRSRSRSRSTRRRSRSTDRRRGGSRRSRSREKRRRRRRSASPPPATSSSSSSRRERHRGKHRDGGGSKKKKKRSRSRGEKRSGDGSEKAPAPAPPPSGSTSCGDRDSRRRGAVPPSIQDLTDHDLFAIKRTITVGRLDKSDPRGPSPAPASSPKREVLYDSEGLSGEERGGKSSQKDRRRSGAASSSSSSREKGSRRKALDGGDRDRDRDRDRDRDRSSKKARPPKESAPSSGPPPKPPVSSGSGSSSSSSSCSSRKVKLQSKVAVLIREGVSSTTPAKDAASAGLGSIGVKFSRDRESRSPFLKPDERAPTEMAKAAPGSTKPKKTKVKAKAGAKKTKGTKGKTKPSKTRKKVRSGGGSGGSGGQVSLKKSKADSCSQAAGTKGAEETSWSGEERAAKVPSTPPPKAAPPPPALTPDSQTVDSSCKTPEVSFLPEEATEEAGVRGGAEEEEEEEEEEEEEEEEEEQQPATTTATSTAAAAPSTAPSAGSTAGDSGAEDGPASRVSQLPTLPPPMPWNLPAGVDCTTSGVLALTALLFKMEEANLASRAKAQELIQATNQILSHRKPPSSLGMTPAPVPTSLGLPPGPSSYLLPGSLPLGGCGSTPPTPTGLAATSDKREGSSSSEGRGDTDKYLKKLHTQERAVEEVKLAIKPYYQKKDITKEEYKDILRKAVHKICHSKSGEINPVKVSNLVRAYVQRYRYFRKHGRKPGDPPGPPRPPKEPGPPDKGGPGLPLPPL [SCAF1]”, the melting temperature in data set [1] (cell cycle stage: G1/S) stood at 49.5 °C; in data set [1] (cell cycle stage: mitosis) it was 50.2 °C. Besides, the “solubility in G1/S (log2)” value in data set [2] was -1.69. In addition, the thermal stability score was -0.0585 in data set [3] (setting [5]) and 1.29 in data set [3] (cell cycle stage: mitosis). Further, in data set [4], the “solubility change mitosis (log2)” value worked out at 1.41.
